Experimental data reported in patent US20110294738A1, “PTHR1 RECEPTOR COMPOUNDS” (priority 2008, published 2011).
* marks the point of attachment. Palmitoyl = CCCCCCCCCCCCCCCC(=O)*

Molecular target: PTHR1 receptor
Sequence (P25961 whole entry): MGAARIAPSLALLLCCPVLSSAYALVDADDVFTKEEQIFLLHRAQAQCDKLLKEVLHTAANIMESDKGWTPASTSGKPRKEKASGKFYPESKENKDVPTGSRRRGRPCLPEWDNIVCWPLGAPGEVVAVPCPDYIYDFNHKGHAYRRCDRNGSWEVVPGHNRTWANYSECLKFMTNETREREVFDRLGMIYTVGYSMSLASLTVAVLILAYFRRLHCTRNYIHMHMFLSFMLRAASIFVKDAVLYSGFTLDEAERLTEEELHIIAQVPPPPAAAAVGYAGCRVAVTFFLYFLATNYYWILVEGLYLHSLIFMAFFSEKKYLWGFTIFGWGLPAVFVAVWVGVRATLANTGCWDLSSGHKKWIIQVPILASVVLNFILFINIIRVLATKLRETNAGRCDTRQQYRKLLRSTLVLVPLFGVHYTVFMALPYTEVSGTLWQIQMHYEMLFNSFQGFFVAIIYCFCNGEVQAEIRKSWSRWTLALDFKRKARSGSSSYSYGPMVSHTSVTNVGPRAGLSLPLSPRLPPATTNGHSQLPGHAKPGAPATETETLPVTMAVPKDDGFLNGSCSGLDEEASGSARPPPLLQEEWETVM

| Fold Shift of EC50 | Inhibition of Maximal Response | Binder |
| --- | --- | --- |
| 5 fold | 8.3% | Palmitoyl-TNAGRSDTRQQARKLL-NH2 (SMILES CCCCCCCCCCCCCCCC(=O)N[C@H](C(=O)N[C@@H](CC(N)=O)C(=O)N[C@@H](C)C(=O)NCC(=O)N[C@@H](CCCNC(=N)N)C(=O)N[C@@H](CO)C(=O)N[C@@H](CC(=O)O)C(=O)N[C@H](C(=O)N[C@@H](CCCNC(=N)N)C(=O)N[C@@H](CCC(N)=O)C(=O)N[C@@H](CCC(N)=O)C(=O)N[C@@H](C)C(=O)N[C@@H](CCCNC(=N)N)C(=O)N[C@@H](CCCCN)C(=O)N[C@@H](CC(C)C)C(=O)N[C@@H](CC(C)C)C(N)=O)[C@@H](C)O)[C@@H](C)O) [Compound 92] |
| 2 fold | 9.8% | Palmitoyl-TNAGRSDTRQQYAKLL-NH2 (SMILES CCCCCCCCCCCCCCCC(=O)N[C@H](C(=O)N[C@@H](CC(N)=O)C(=O)N[C@@H](C)C(=O)NCC(=O)N[C@@H](CCCNC(=N)N)C(=O)N[C@@H](CO)C(=O)N[C@@H](CC(=O)O)C(=O)N[C@H](C(=O)N[C@@H](CCCNC(=N)N)C(=O)N[C@@H](CCC(N)=O)C(=O)N[C@@H](CCC(N)=O)C(=O)N[C@@H](Cc1ccc(O)cc1)C(=O)N[C@@H](C)C(=O)N[C@@H](CCCCN)C(=O)N[C@@H](CC(C)C)C(=O)N[C@@H](CC(C)C)C(N)=O)[C@@H](C)O)[C@@H](C)O) [Compound 91] |
| 19 fold | -5.7% | Palmitoyl-AGRSDTRQQYRKLLFS-NH2 (SMILES CCCCCCCCCCCCCCCC(=O)N[C@@H](C)C(=O)NCC(=O)N[C@@H](CCCNC(=N)N)C(=O)N[C@@H](CO)C(=O)N[C@@H](CC(=O)O)C(=O)N[C@H](C(=O)N[C@@H](CCCNC(=N)N)C(=O)N[C@@H](CCC(N)=O)C(=O)N[C@@H](CCC(N)=O)C(=O)N[C@@H](Cc1ccc(O)cc1)C(=O)N[C@@H](CCCNC(=N)N)C(=O)N[C@@H](CCCCN)C(=O)N[C@@H](CC(C)C)C(=O)N[C@@H](CC(C)C)C(=O)N[C@@H](Cc1ccccc1)C(=O)N[C@@H](CO)C(N)=O)[C@@H](C)O) [Compound 95] |
| 13.4 fold | -67% | Palmitoyl-TNAGRSDTRQAYRKLL-NH2 (SMILES CCCCCCCCCCCCCCCC(=O)N[C@H](C(=O)N[C@@H](CC(N)=O)C(=O)N[C@@H](C)C(=O)NCC(=O)N[C@@H](CCCNC(=N)N)C(=O)N[C@@H](CO)C(=O)N[C@@H](CC(=O)O)C(=O)N[C@H](C(=O)N[C@@H](CCCNC(=N)N)C(=O)N[C@@H](CCC(N)=O)C(=O)N[C@@H](C)C(=O)N[C@@H](Cc1ccc(O)cc1)C(=O)N[C@@H](CCCNC(=N)N)C(=O)N[C@@H](CCCCN)C(=O)N[C@@H](CC(C)C)C(=O)N[C@@H](CC(C)C)C(N)=O)[C@@H](C)O)[C@@H](C)O) [Compound 93] |
| 18.7 fold | -24.4% | Palmitoyl-AGRSDTRQQYRKLLFA-NH2 (SMILES CCCCCCCCCCCCCCCC(=O)N[C@@H](C)C(=O)NCC(=O)N[C@@H](CCCNC(=N)N)C(=O)N[C@@H](CO)C(=O)N[C@@H](CC(=O)O)C(=O)N[C@H](C(=O)N[C@@H](CCCNC(=N)N)C(=O)N[C@@H](CCC(N)=O)C(=O)N[C@@H](CCC(N)=O)C(=O)N[C@@H](Cc1ccc(O)cc1)C(=O)N[C@@H](CCCNC(=N)N)C(=O)N[C@@H](CCCCN)C(=O)N[C@@H](CC(C)C)C(=O)N[C@@H](CC(C)C)C(=O)N[C@@H](Cc1ccccc1)C(=O)N[C@@H](C)C(N)=O)[C@@H](C)O) [Compound 94] |
| 1.3 fold | 5.5% | Palmitoyl-RRLHSTRNYIHMH-NH2 (SMILES CCCCCCCCCCCCCCCC(=O)N[C@@H](CCCNC(=N)N)C(=O)N[C@@H](CCCNC(=N)N)C(=O)N[C@@H](CC(C)C)C(=O)N[C@@H](Cc1c[nH]cn1)C(=O)N[C@@H](CO)C(=O)N[C@H](C(=O)N[C@@H](CCCNC(=N)N)C(=O)N[C@@H](CC(N)=O)C(=O)N[C@@H](Cc1ccc(O)cc1)C(=O)N[C@H](C(=O)N[C@@H](Cc1c[nH]cn1)C(=O)N[C@@H](CCSC)C(=O)N[C@@H](Cc1c[nH]cn1)C(N)=O)[C@@H](C)CC)[C@@H](C)O) [Compound 1] |
| 1.2 fold | 5.9% | Palmitoyl-HSLIFMAFFSEKKYLWGFT-NH2 (SMILES CCCCCCCCCCCCCCCC(=O)N[C@@H](Cc1c[nH]cn1)C(=O)N[C@@H](CO)C(=O)N[C@@H](CC(C)C)C(=O)N[C@H](C(=O)N[C@@H](Cc1ccccc1)C(=O)N[C@@H](CCSC)C(=O)N[C@@H](C)C(=O)N[C@@H](Cc1ccccc1)C(=O)N[C@@H](Cc1ccccc1)C(=O)N[C@@H](CO)C(=O)N[C@@H](CCC(=O)O)C(=O)N[C@@H](CCCCN)C(=O)N[C@@H](CCCCN)C(=O)N[C@@H](Cc1ccc(O)cc1)C(=O)N[C@@H](CC(C)C)C(=O)N[C@@H](Cc1c[nH]c2ccccc12)C(=O)NCC(=O)N[C@@H](Cc1ccccc1)C(=O)N[C@H](C(N)=O)[C@@H](C)O)[C@@H](C)CC) [Compound 36] |
| 1.1 fold | 24.5% | Palmitoyl-YLHSLIFMAFFSEKKYLWGFT-NH2 (SMILES CCCCCCCCCCCCCCCC(=O)N[C@@H](Cc1ccc(O)cc1)C(=O)N[C@@H](CC(C)C)C(=O)N[C@@H](Cc1c[nH]cn1)C(=O)N[C@@H](CO)C(=O)N[C@@H](CC(C)C)C(=O)N[C@H](C(=O)N[C@@H](Cc1ccccc1)C(=O)N[C@@H](CCSC)C(=O)N[C@@H](C)C(=O)N[C@@H](Cc1ccccc1)C(=O)N[C@@H](Cc1ccccc1)C(=O)N[C@@H](CO)C(=O)N[C@@H](CCC(=O)O)C(=O)N[C@@H](CCCCN)C(=O)N[C@@H](CCCCN)C(=O)N[C@@H](Cc1ccc(O)cc1)C(=O)N[C@@H](CC(C)C)C(=O)N[C@@H](Cc1c[nH]c2ccccc12)C(=O)NCC(=O)N[C@@H](Cc1ccccc1)C(=O)N[C@H](C(N)=O)[C@@H](C)O)[C@@H](C)CC) [Compound 35] |
| 2 fold | -8.3% | Palmitoyl-NIVRVLATKLRETNAGRSD-NH2 (SMILES CCCCCCCCCCCCCCCC(=O)N[C@@H](CC(N)=O)C(=O)N[C@H](C(=O)N[C@H](C(=O)N[C@@H](CCCNC(=N)N)C(=O)N[C@H](C(=O)N[C@@H](CC(C)C)C(=O)N[C@@H](C)C(=O)N[C@H](C(=O)N[C@@H](CCCCN)C(=O)N[C@@H](CC(C)C)C(=O)N[C@@H](CCCNC(=N)N)C(=O)N[C@@H](CCC(=O)O)C(=O)N[C@H](C(=O)N[C@@H](CC(N)=O)C(=O)N[C@@H](C)C(=O)NCC(=O)N[C@@H](CCCNC(=N)N)C(=O)N[C@@H](CO)C(=O)N[C@@H](CC(=O)O)C(N)=O)[C@@H](C)O)[C@@H](C)O)C(C)C)C(C)C)[C@@H](C)CC) [Compound 44] |
